Six molecules from article PMC5021521, “Coordinated recruitment of Spir actin nucleators and myosin V motors to Rab11 vesicle membranes” (eLife, 2016) can be followed below.

Numbering of substitutions follows the chain as printed. Numbers in names are those of the source.

The test system of one assay is AcGFP-MyoVa-GTD. Kind of assay: FLIM-FRET at vesicle membranes in HeLa cells. Format: cell-based, Mus musculus. To be noted: AcGFP-MyoVa-GTD donor. On the procedure: Fluorescence lifetimes were imaged with a commercial FLIM upgrade kit (PicoQuant, Berlin, Germany) attached to a confocal microscope LSM 880 (Zeiss, Jena, Germany) using a 440 nm pulsed laser diode at 20 MHz repetition rate. The fluorescence was detected using the Big.2-unit (Zeiss) fed into the TimeHarp 260 photon counting board (PicoQuant). Time series of FLIM images were recorded until bright pixels accumulated at least 1000 photon events. Before pixel wise fitting (Symphotime, 64-bit, version 2, PicoQuant), a region of interest was defined manually by setting a threshold for selecting pixels of high intensity (100–300 photon events per pixel). Fitting employed an exponential two-component model to 20 ns of the decay without binning. Lifetime images contained the color coded, intensity weighted average in each pixel.
For an improved automated selection of vesicular structures in cells, we followed a previously established semi-automated approach ([Austen et al., 2015]). Briefly, confocal imaging was done using a Leica TCS SP5 X confocal microscope equipped with a pulsed white light laser (WLL, 80 MHz repetition rate; NKT Photonics, Birkerod, Denmark), a FLIM X16 TCSPC detector (LaVision Biotec, Bielefeld, Germany) and a 63x water objective (HCX PL APO CS, NA = 1.2). A band-pass filter 514/30 (AHF Analysentechnik, Tübingen, Germany) was used to block acceptor emitted photons. Data analysis includes manual selection of the cytoplasmic regions followed by a threshold algorithm, segmenting high intensity regions based on spatial signal changes at varying levels. The custom-written MATLAB program ([Austen et al., 2015]) calculates the average FRET efficiency E according to E = 1−τDA/τD
with τD as the mean donor lifetime τDA as mean donor lifetime in presence of an acceptor fluorophore. E represents the entire ROI of a single cell. Here, fitting employed an exponential one-component fit to 10 ns of decay; the first 0.5 ns were omitted due to the instrumental response. […]

Assay [1] deals with Spir-2:MyoVa:Rab11 tripartite complex. Kind of assay: Analytical gel filtration. Format: binding, Homo sapiens. The conditions noted are these: Superdex 200 10/30; 50 mM Tris pH 8.0, 150 mM NaCl, 2 mM MgCl2, 2 mM TCEP. As for the experimental part:
Complex formations were analyzed by analytical gel-filtration using Superdex 200 10/30 Increase column (GE Healthcare Life Sciences) and UV light absorbance at 280 nm and 260 nm and Visible light absorbance at 587 nm at flow rate of 0.75 ml/min in 50 mM Tris pH 8.0, 150 mM NaCl, 2 mM MgCl2, 2 mM TCEP buffer. Fractions of 500 µl were collected and analyzed by SDS-PAGE.
A 100 µl sample of His6-Rab11a-1-173-Q70L at 6 mg/ml, or of MyoVa-GTD at 5 mg/ml or of His6-mCherry-Spir-2-linker at 6 mg/ml were centrifuged at 10,000 x g for 10 min and injected into the column to monitor reference elution profiles of the individual proteins. The proteins were mixed pairwise to the same final concentrations and incubated 30 min at 4°C in a total volume of 100 µl. The two-component complexes (His6-mCherry-Spir-2-linker:MyoVa-GTD and MyoVa-GTD:His6-Rab11a-1-173-Q70L) were confirmed by the elution peak shifts and SDS-PAGE analysis. […] The tripartite His6-mCherry-Spir-2-linker:MyoVa-GTD:His6-Rab11a-1-173-Q70L complex was analyzed at the same concentration of the individual components and confirmed by SDS-PAGE.

The next assay addresses T1, MyoVa-GTD (Homo sapiens, UniProt Q9Y4I1).
T1 construct: aa 1461 - 1853 (BamHI / XhoI); His6 (6xHis) with rTEV site (N, cleaved yes); made in house; host or cells: Escherichia coli BL21(DE3) or BL21-CodonPlus-RILP
Description: Surface plasmon resonance, Rab11a captured. It counts as binding. On the procedure:
The assays were carried out at 25°C in buffer (50 mM Hepes pH 7.5, 100 mM NaCl, 2 mM MgCl2, 1 mM TCEP). 200–250 resonance units (RU; 1RU ≈ 1 pg × mm^−2) of Rab11a-Q70L(GTP) or Rab11-wt(GDP) were captured through their His6-tag on the surface of a NTA sensorchip using a Biacore 2000 instrument (GE Healthcare Life Sciences). MyoVa-GTD or MyoVb-GTD (10 nM–5 µM) were then injected over the tethered Rabs for one minute at a flow rate of […]. The surface was regenerated with a 2-min 0.3 M EDTA incubation and a 1-min 0.1% SDS wash. The real-time interaction profiles were double referenced using the Scrubber 2.0 software (BioLogic Software, Campbell, Australia), both the signals from a reference surface (with a non-relevant protein captured on NTA) and from blank experiments using buffer instead of MyoV-GTD were subtracted. The MyoV-GTD concentration-dependence of the steady-state SPR signals was then analyzed to determine the dissociation equilibrium constants (Kd) of the different complexes using the numerical integration algorithm software Biaevaluation 4.1. Each experiment (10 point 2-fold dilution concentration series each) was repeated in triplicate, yielding mean Kd values and standard errors (SEM).
On the technique in general: In SPR one partner is held on a chip, and binding of the other changes the refractive index at the surface.

For the next assay, the system named is HeLa cells. Kind of assay: Subcellular localization by fluorescence microscopy. Format: cell-based. As for the experimental part:
HeLa cells were seeded on microscope cover glasses and transfected with Myc-epitope-tagged Spir-2 proteins and fluorescently-tagged MyoV and Rab11 proteins as described above. Cells were fixed with paraformaldehyde (3.7% in 1x PBS) for 20 min at 4°C and subsequently permeabilized using 0.2% Triton X-100 (in 1x PBS) for 3.5 min, room temperature. Cells were incubated with anti-c-Myc antibody (9E10, mouse monoclonal, 2 µg/ml, Santa Cruz Biotechnology; RRID: AB_627268) for 1 hr at room temperature and conjugated anti-mouse secondary antibodies (Cy5; from donkey, 3.25 µg/ml, Dianova (RRID: AB_2340820) and TRITC; from donkey, 3.125 µg/ml, Dianova (RRID: AB_2340767)) for 1 hr at room temperature avoiding exposure to light. Finally, cells were mounted on microscope slides with Mowiol and analyzed with a Leica AF6000LX fluorescence microscope, equipped with a Leica HCX PL APO 63x/1.3 GLYC objective and a Leica DFC350 FX digital camera (1392 × 1040 pixels, 6.45 × 6.45 µm pixel size). 3D stacks were recorded and processed with the Leica deconvolution software module. In case of the MyoVa autoregulation/activation experiments, we quantified the MyoVa expression levels. […] In order to clearly distinguish between vesicular and cytoplasmic MyoVa localization, we imaged either high or low expressing cells and determined the sum of pixel gray values per cell as a measure for the MyoVa expression levels. Based on that, we only used cells for the autoregulation analysis having a sum of pixel gray values less than 20 × 10^6 for the expression of GFP-MyoVa-D-FL. Images were recorded using the Leica LASX software and further processed with Adobe Photoshop and subsequently assembled with Adobe Illustrator.

Usually Kd stands for the free concentration of one partner at which half of the binding sites on the other are occupied at equilibrium, for simple one-to-one binding.

T1 sequence (Q9Y4I1 1463-1855): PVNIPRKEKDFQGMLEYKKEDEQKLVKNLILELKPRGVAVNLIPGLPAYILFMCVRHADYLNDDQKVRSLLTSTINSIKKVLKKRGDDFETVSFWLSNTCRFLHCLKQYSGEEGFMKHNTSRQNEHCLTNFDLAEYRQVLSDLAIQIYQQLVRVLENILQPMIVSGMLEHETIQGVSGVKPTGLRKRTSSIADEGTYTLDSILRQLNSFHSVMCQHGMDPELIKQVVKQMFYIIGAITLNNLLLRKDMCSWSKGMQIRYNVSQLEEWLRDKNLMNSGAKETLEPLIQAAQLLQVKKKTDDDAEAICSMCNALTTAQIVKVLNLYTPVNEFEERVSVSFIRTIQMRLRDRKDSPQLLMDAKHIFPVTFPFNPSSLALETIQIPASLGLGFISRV

B1: mStrawberry-Spir-2-GTBM-SB-FYVE: mStrawberry-hs-Spir2-GTBM-SB-FYVE aa 361 - 714 (protein)
chain: GEGWAARGFGSLPCILNACSGDAKSTSCINLSVTDAGGSAQRPRPRVLLKAPTLAEMEEMNTSEEEESPCGEVTLKRDRSFSEHDLAQLRSEVASGLQSATHPPGGTEPPRPRAGSAHVWRPGSRDQGTCPASVSDPSHPLLSNRGSSGDRPEASMTPDAKHLWLEFSHPVESLALTVEEVMDVRRVLVKAEMEKFLQNKELFSSLKKGKICCCCRAKFPLFSWPPSCLFCKRAVCTSCSIKMKMPSKKFGHIPVYTLGFESPQRVSAAKTAPIQRRDIFQSLQGPQWQSVEEAFPHIYSHGCVLKDVCSECTSFVADVVRSSRKSVDVLNTTPRRSRQTQSLYIPNTRTLDFK
modifications: left off: mStrawberry, end not stated, kept
Turning to B1, in the assay on AcGFP-MyoVa-GTD, the “fluorescence lifetime / FRET result in words” value is recorded as “able to reduce the fluorescence lifetime”.

B2: Spir-2-GTBM-SB-FYVE-LALA: mStrawberry-hs-Spir2-GTBM-SB-FYVE-L408A,L409A (protein)
chain: B1 chain with L48A, L49A
modifications: left off: mStrawberry, end not stated, kept
notes: mStrawberry-hs-Spir2-GTBM-SB-FYVE-L408A,L409A
Consider B2, for which the “fluorescence lifetime / FRET result in words” value in the assay on AcGFP-MyoVa-GTD is recorded as “did not alter the lifetime”.

B3: Rab11a-Q70L: hs-Rab11a-Q70L aa 1 - 173, GTP-locked mutant (protein)
chain: MGTRDDEYDYLFKVVLIGDSGVGKSNLLSRFTRNEFNLESKSTIGVEFATRSIQVDGKTIKAQIWDTAGLERYRAITSAYYRGAVGALLVYDIAKHLTYENVERWLKELRDHADSNIVIMLVGNKSDLRHLRAVPTDEARAFAEKNGLSFIETSALDSTNVEAAFQTILTEIY
modifications: left off: His6, N-terminal, kept
notes: hs-Rab11a-Q70L aa 1 - 173, GTP-locked mutant
Take B3: the “co-elution in gel filtration in words” value in assay [1] was “co-elution of all three proteins”.

B4: Rab11GDP: Rab11-wt(GDP) captured through its His6-tag (protein)
chain: MGTRDDEYDYLFKVVLIGDSGVGKSNLLSRFTRNEFNLESKSTIGVEFATRSIQVDGKTIKAQIWDTAGQERYRAITSAYYRGAVGALLVYDIAKHLTYENVERWLKELRDHADSNIVIMLVGNKSDLRHLRAVPTDEARAFAEKNGLSFIETSALDSTNVEAAFQTILTEIYRIVS
modifications: left off: His6, N-terminal, kept
notes: Rab11-wt(GDP) captured through its His6-tag
With B4, in the assay with MyoVa-GTD (MyoVa-GTD 10 nM–5 µM over captured Rab11a-Q70L(GTP) or Rab11-wt(GDP), 50 mM Hepes pH 7.5, 100 mM NaCl, 2 mM MgCl2, 1 mM TCEP, 25°C, steady state, mean ± SEM, N = 3, read-out: dissociation equilibrium constant (Kd)), the Kd was determined as 2620 ± 490 nM. Moreover, the affinity in words entry in the assay with MyoVa-GTD (Rab11-GDP for MyoVa) is listed as “relatively high affinity”.

B5: Myc-Spir-2-KIND-WH2-GTBM: Myc-hs-Spir2-KIND-WH2-GTBM aa 2 - 437 (protein, UniProt Q8WWL2 2-437, looked up, fragment)
chain: ARAGSCGGAAAGAGRPEPWELSLEEVLKAYEQPLNEEQAWAVCFQGCRGLRGSPGRRLRDTGDLLLRGDGSVGAREPEAAEPATMVVPLASSEAQTVQSLGFAIYRALDWGLDESEERELSPQLERLIDLMANNDSEDSGCGAADEGYGGPEEEEEAEGVPRSVRTFAQAMRLCAARLTDPRGAQAHYQAVCRALFVETLELRAFLARVREAKEMLQKLREDEPHLETPRAELDSLGHTDWARLWVQLMRELRRGVKLKKVQEQEFNPLPTEFQLTPFEMLMQDIRARNYKLRKVMVDGDIPPRVKKDAHELILDFIRSRPPLKQVSERRLRPLPPKQRSLHEKILEEIKQERRLRPVRGEGWAARGFGSLPCILNACSGDAKSTSCINLSVTDAGGSAQRPRPRVLLKAPTLAEMEEMNTSEEEESPCGEVTLKR
modifications: Myc tag
As to B5, the “subcellular localization in words” value in the assay with HeLa cells (co-expression of eGFP-MyoVa-FL and N-terminal Spir-2 fragment) is “both proteins localize to vesicle membranes”; in the assay on HeLa cells (single expression), “even cytoplasmic and nuclear localization”.

B6: mStrawberry-Spir-2-SB-FYVE: mStrawberry-hs-Spir2-SB-FYVE aa 438 - 714 (protein)
chain: DRSFSEHDLAQLRSEVASGLQSATHPPGGTEPPRPRAGSAHVWRPGSRDQGTCPASVSDPSHPLLSNRGSSGDRPEASMTPDAKHLWLEFSHPVESLALTVEEVMDVRRVLVKAEMEKFLQNKELFSSLKKGKICCCCRAKFPLFSWPPSCLFCKRAVCTSCSIKMKMPSKKFGHIPVYTLGFESPQRVSAAKTAPIQRRDIFQSLQGPQWQSVEEAFPHIYSHGCVLKDVCSECTSFVADVVRSSRKSVDVLNTTPRRSRQTQSLYIPNTRTLDFK
modifications: left off: mStrawberry, end not stated, kept
As for B6, the “fluorescence lifetime / FRET result in words” value in the assay on AcGFP-MyoVa-GTD is given as “did not alter the lifetime”.
